{
  "source": "paper PMC3642112",
  "key": {"[1]": {"target": "T1, translin (wild-type, native) (Drosophila melanogaster, UniProt Q7JVK6 1-235)", "T1 sequence": "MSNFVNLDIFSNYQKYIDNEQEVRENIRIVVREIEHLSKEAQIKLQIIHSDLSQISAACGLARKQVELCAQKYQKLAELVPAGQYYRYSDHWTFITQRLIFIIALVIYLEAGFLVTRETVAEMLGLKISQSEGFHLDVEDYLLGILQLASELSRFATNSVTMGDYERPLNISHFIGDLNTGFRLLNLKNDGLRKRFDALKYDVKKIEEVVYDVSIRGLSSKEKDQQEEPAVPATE", "test": "EMSA"}, "[2]": {"target": "human translin (wild-type) (human, UniProt Q15631 1-228)", "sequence (Q15631 whole entry)": "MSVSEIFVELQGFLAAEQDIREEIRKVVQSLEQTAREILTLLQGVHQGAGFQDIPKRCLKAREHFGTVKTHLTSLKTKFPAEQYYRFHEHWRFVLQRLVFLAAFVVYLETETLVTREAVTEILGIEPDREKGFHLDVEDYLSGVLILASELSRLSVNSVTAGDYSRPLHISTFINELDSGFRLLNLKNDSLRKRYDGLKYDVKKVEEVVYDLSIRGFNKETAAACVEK", "test": "EMSA"}},
  "data": [
    {"binder": "GCCCTCCTGCCCTCCTTCCGCGGG (ssDNA)", "note": "[Bcl-CL1 24-mer ssDNA]", "values": [
      {"measurement": "binding result", "setting": "[1]", "value": "binds"},
      {"measurement": "binding result", "setting": "[2]", "value": "binds"}
    ]}
  ]
}
